In paper PMC3931814, “Dehydroepiandrosterone Sulfate (DHEAS) Stimulates the First Step in the Biosynthesis of Steroid Hormones” (PLoS ONE, 2014):

Experiments:
Conditions in all cases: both partners purified
CYP11A1 [1] = molecular target: T1, CYP11A1 (UniProt P00189 40-520); experiment: SPR; Biacore3000; CYP11A1 injected at 5-7.5 nM in HBS-EP buffer; bound CYP11A1 removed with 2 mM NaOH; in the presence of cholesterol (CYP11A1:cholesterol 1:10 by the methods, 1:15 by the legend of Figure 7); Biaeval 4.1; parameters: scale not given here
T1 construct: CYP11A1 (cholesterol side-chain cleavage cytochrome P450); Single band at 55 kDa on SDS gel; Heme protein; also called recombinant CYP11A1; His-tagged CYP11A1; source: E. coli C43(DE3), co-transformed with groEL/groES chaperones, purified (IMAC Ni-NTA, SP-sepharose)
T1 sequence (looked up): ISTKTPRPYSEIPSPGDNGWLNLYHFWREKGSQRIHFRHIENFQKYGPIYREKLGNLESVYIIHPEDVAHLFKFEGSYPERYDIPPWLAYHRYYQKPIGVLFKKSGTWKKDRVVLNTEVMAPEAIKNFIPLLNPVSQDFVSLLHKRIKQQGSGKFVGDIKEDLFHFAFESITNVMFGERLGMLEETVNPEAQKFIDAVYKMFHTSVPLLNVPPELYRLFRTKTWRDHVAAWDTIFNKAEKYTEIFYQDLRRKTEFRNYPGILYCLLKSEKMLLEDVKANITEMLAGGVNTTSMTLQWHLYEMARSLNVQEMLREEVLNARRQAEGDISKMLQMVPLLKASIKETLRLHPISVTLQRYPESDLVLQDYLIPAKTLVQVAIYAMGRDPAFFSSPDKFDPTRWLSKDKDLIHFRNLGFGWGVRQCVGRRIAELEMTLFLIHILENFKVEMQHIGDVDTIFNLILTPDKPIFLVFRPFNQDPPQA

CYP11A1 [2] = molecular target: T1, CYP11A1; experiment: as above
CYP11A1 [3] = molecular target: T1, CYP11A1; experiment: SPR; Biacore3000; CYP11A1 injected at 5-7.5 nM in HBS-EP buffer; bound CYP11A1 removed with 2 mM NaOH; in the presence of cholesterol and DHEAS (CYP11A1:cholesterol:DHEAS 1:10:50 by the methods, 1:15:75 by the legend of Figure 7); Biaeval 4.1
CYP11A1 [4] = molecular target: T1, CYP11A1; experiment: SPR; Biacore3000; CYP11A1 injected at 5-7.5 nM in HBS-EP buffer, at least three times each; bound CYP11A1 removed with 2 mM NaOH; in absence of cholesterol; Biaeval 4.1
CYP11A1 [5] = molecular target: T1, CYP11A1; experiment: as above; parameters: scale not given here

koff (CYP11A1 [1]): 2.8 ± 0.09 s⁻¹ | Kd (CYP11A1 [2]): 3 ± 0.35 nM | Kd (CYP11A1 [3]): 2.4 ± 0.05 nM | Kd (CYP11A1 [4]): 3.8 ± 0.55 nM | koff (CYP11A1 [5]): 2.4 ± 0.99 s⁻¹
B1: bovine adrenodoxin (natural protein, UniProt P00257 59-186, looked up)
chain: SSSEDKITVHFINRDGETLTTKGKIGDSLLDVVVQNNLDIDGFGACEGTLACSTCHLIFEQHIFEKLEAITDEENDMLDLAYGLTDRSRLGCQICLTKAMDNMTVRVPDAVSDARESIDMGMNSSKIE
notes: adrenodoxin (Adx), bovine, the ferredoxin that transfers electrons to CYP11A1; [2Fe-2S] protein; also called Adx
